Data taken from the supplement of paper PMC7125110.
± gives the standard error. For some assays here: Variants at the floor of the assay were thinned out.

B1: glmS ribozyme (parent)
chain: AUAAAAGCGCCAGAACUACAGAAAUGUAGUUGACGAGGAGGAGGUUUAUCGAAUUUUCGGCGGAUGCCUCCAAA

Assays:
Settings in all cases: with glucosamine-6-phosphate
glucosamine-6-phosphate [1] = variants of: B1; experiment: kcat; higher = faster cleavage; RNA array
How it was run: (§1)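 In situ transcription by E. coli RNA polymerase produced barcoded ribozyme variants on sequenced MiSeq chips, and a hybridised Cy3 probe tracked them at 37 °C. Glucosamine-6-phosphate was flowed in at 40 μM to 10 mM in HEPES/KCl/Mg(OAc)2 buffer. kcat and KM were taken from weighted Michaelis–Menten fits of kobs values from exponential decay fits.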

glucosamine-6-phosphate [2] = variants of: B1; experiment: self-cleavage kobs at 40 uM GlcN6P; higher = faster cleavage; RNA array
How it was run: as §1

glucosamine-6-phosphate [3] = variants of: B1; experiment: self-cleavage kobs at 2500 uM GlcN6P; higher = faster cleavage; RNA array
How it was run: as §1

glucosamine-6-phosphate [4] = variants of: B1; experiment: KM; higher = weaker cofactor use; RNA array
How it was run: as §1

glucosamine-6-phosphate [5] = variants of: B1; experiment: self-cleavage kobs at 640 uM GlcN6P; higher = faster cleavage; RNA array
How it was run: as §1

glucosamine-6-phosphate [6] = variants of: B1; experiment: self-cleavage kobs at 10000 uM GlcN6P; higher = faster cleavage; RNA array
How it was run: as §1

glucosamine-6-phosphate [7] = variants of: B1; experiment: self-cleavage kobs at 160 uM GlcN6P; higher = faster cleavage; RNA array
How it was run: as §1

## AUAAAAGCGCCAGAACUACAGAAAUGUAGUUGACGACGAGGAGGUUUAUCGAAUUUUCGGCGGAUACCUCCAAA [G37C G66A]
glucosamine-6-phosphate [1]
  kcat: 3.43e-05 ± 7.8e-06 s⁻¹
glucosamine-6-phosphate [2]
  self-cleavage kobs at 40 uM GlcN6P: < 1e-05 s⁻¹
glucosamine-6-phosphate [3]
  self-cleavage kobs at 2500 uM GlcN6P: 3.43e-05 ± 1.5e-05 s⁻¹

## AUAAAAGCGCCAGAACUACAGAAAUGUAGUUGACGACGAGGAGGUUUAUCGAAAUUUCGGCGGAUGCCGCCAAA [G37C U54A U69G]
glucosamine-6-phosphate [1]
  kcat: 3.07e-05 ± 5e-06 s⁻¹

## AUAAAAGCGCCAGAACUACAGAAAUGUAGUUGACGACGAGGAGGUUGAUCGAAUUUUCGGCGGAUGCCUCCAAA [G37C U47G]
glucosamine-6-phosphate [1]
  kcat: 1.63e-05 ± 2.9e-06 s⁻¹

## AUAAAAGCGCCAGAACUACAGAAAUGUAGUUGACGAGAAGGAGGUUUAUCGCAUUUUCGGCGGAUGCCUACAAA [G38A A52C C70A]
glucosamine-6-phosphate [1]
  kcat: 1.15e-05 ± 3.5e-06 s⁻¹

## AUAAAAGCGCCAGAACUACAGAAAUGUAGUUGACGAAGAGGAGGUUUAUCGAAUUUUCGGCGGAUUCCUCCAAA [G37A G66U]
glucosamine-6-phosphate [1]
  kcat: 0.000462 ± 0.00011 s⁻¹
glucosamine-6-phosphate [4]
  KM: 3940 ± 1500 µM
glucosamine-6-phosphate [5]
  self-cleavage kobs at 640 uM GlcN6P: 5.56e-05 ± 1.3e-05 s⁻¹
glucosamine-6-phosphate [3]
  self-cleavage kobs at 2500 uM GlcN6P: 0.000217 ± 3.4e-05 s⁻¹
glucosamine-6-phosphate [6]
  self-cleavage kobs at 10000 uM GlcN6P: 0.000301 ± 6.5e-05 s⁻¹

## AUAAAAGCGCCAGAACUACAGAAAUGUAGUUGACGAAGAGGAGGUUUAUCGAAUUUUCGGCGGAUACCUCCAAA [G37A G66A]
glucosamine-6-phosphate [1]
  kcat: 0.00157 ± 0.00017 s⁻¹
glucosamine-6-phosphate [4]
  KM: 4290 ± 740 µM
glucosamine-6-phosphate [2]
  self-cleavage kobs at 40 uM GlcN6P: 1.72e-05 ± 8.5e-06 s⁻¹
glucosamine-6-phosphate [7]
  self-cleavage kobs at 160 uM GlcN6P: 6.39e-05 ± 2e-05 s⁻¹
glucosamine-6-phosphate [5]
  self-cleavage kobs at 640 uM GlcN6P: 0.0002 ± 5.4e-05 s⁻¹
glucosamine-6-phosphate [3]
  self-cleavage kobs at 2500 uM GlcN6P: 0.000527 ± 0.0001 s⁻¹
glucosamine-6-phosphate [6]
  self-cleavage kobs at 10000 uM GlcN6P: 0.00114 ± 0.00018 s⁻¹

## AUAAAAGCGCCAGAACUACAGAAAUGUAGUUGACGAAGAGGAGGUUAAUCGAAUUUUCGGCGGAUGCCUCCAAA [G37A U47A]
glucosamine-6-phosphate [1]
  kcat: 0.00374 ± 0.0017 s⁻¹
glucosamine-6-phosphate [2]
  self-cleavage kobs at 40 uM GlcN6P: 4.6e-05 ± 1.8e-05 s⁻¹
glucosamine-6-phosphate [7]
  self-cleavage kobs at 160 uM GlcN6P: 7.83e-05 ± 1.8e-05 s⁻¹
glucosamine-6-phosphate [5]
  self-cleavage kobs at 640 uM GlcN6P: 0.000278 ± 4.8e-05 s⁻¹
glucosamine-6-phosphate [3]
  self-cleavage kobs at 2500 uM GlcN6P: 0.000752 ± 0.00014 s⁻¹
glucosamine-6-phosphate [6]
  self-cleavage kobs at 10000 uM GlcN6P: 0.00229 ± 0.00044 s⁻¹

## AUAAAAGCGCCAGAACUACAGAAAUGUAGUUGACGAAGAGCAGGUUUAUCGAAUUUUCGGCGGAUGCCUCCAAA [G37A G41C]
glucosamine-6-phosphate [1]
  kcat: 2.41e-05 ± 9.5e-06 s⁻¹
glucosamine-6-phosphate [3]
  self-cleavage kobs at 2500 uM GlcN6P: 3.87e-05 ± 1.5e-05 s⁻¹

## AUAAAAGCGCCAGAACUACAGAAAUGUAGUUGACGACGAGGAGGUUUAUCGAAUUUUCGGCGGUUGCGUCCAAA [G37C A64U C68G]
glucosamine-6-phosphate [1]
  kcat: 1.68e-05 ± 1.7e-06 s⁻¹
glucosamine-6-phosphate [4]
  KM: 29.1 ± 13 µM

## AUAAAAGCGCCAGAACUACAGAAAUGUAGUUGACGACGAGGAGGUUUAUCGAAUUUUCGGCGGGUGCCUCCAAA [G37C A64G]
glucosamine-6-phosphate [1]
  kcat: 9.23e-05 ± 9.1e-06 s⁻¹
glucosamine-6-phosphate [4]
  KM: 2450 ± 790 µM
glucosamine-6-phosphate [3]
  self-cleavage kobs at 2500 uM GlcN6P: 4.35e-05 ± 9.1e-06 s⁻¹
glucosamine-6-phosphate [6]
  self-cleavage kobs at 10000 uM GlcN6P: 7.49e-05 ± 8e-06 s⁻¹

## AUAAAAGCGCCAGAACUACAGAAAUGUAGUUGACGAAGAGGAGGUUUAUCGAAAUUUCGGCGGAGGCCUCCAAA [G37A U54A U65G]
glucosamine-6-phosphate [1]
  kcat: 0.000309 ± 7.3e-05 s⁻¹
glucosamine-6-phosphate [4]
  KM: 5170 ± 1900 µM
glucosamine-6-phosphate [5]
  self-cleavage kobs at 640 uM GlcN6P: 4.03e-05 ± 1.2e-05 s⁻¹
glucosamine-6-phosphate [3]
  self-cleavage kobs at 2500 uM GlcN6P: 9.16e-05 ± 2e-05 s⁻¹
glucosamine-6-phosphate [6]
  self-cleavage kobs at 10000 uM GlcN6P: 0.000215 ± 5e-05 s⁻¹

## AUAAAAGCGCCAGAACUACAGAAAUGUAGUUGACGACGUGGAGGUUUAUCGAAUUUUCGGCGGAUGCCUCCAAA [G37C A39U]
glucosamine-6-phosphate [1]
  kcat: 1.36e-05 ± 1e-06 s⁻¹
glucosamine-6-phosphate [4]
  KM: 1230 ± 450 µM

## AUAAAAGCGCCAGAACUACAGAAAUGUAGUUGACGAUGAGGAGGUUUAUCGAAUUUUUGGCGGAUGCCUCCAAA [G37U C58U]
glucosamine-6-phosphate [1]
  kcat: < 1e-05 s⁻¹
glucosamine-6-phosphate [6]
  self-cleavage kobs at 10000 uM GlcN6P: < 1e-05 s⁻¹

## AUAAAAGCGCCAGAACUACAGAAAUGUAGUUGACGACGAGGGGGUUUAUCGAAUUUUCGGCGGAUGCCUCCAAA [G37C A42G]
glucosamine-6-phosphate [1]
  kcat: 7.11e-05 ± 9.9e-06 s⁻¹
glucosamine-6-phosphate [3]
  self-cleavage kobs at 2500 uM GlcN6P: 4.76e-05 ± 1.3e-05 s⁻¹
glucosamine-6-phosphate [6]
  self-cleavage kobs at 10000 uM GlcN6P: 5.87e-05 ± 1e-05 s⁻¹

## AUAAAAGCGCCAGAACUACAGAAAUGUAGUUGACGAUGAGGAGGUUUAUCGAAUUUUCGGCGGAGGCCUCCAAA [G37U U65G]
glucosamine-6-phosphate [1]
  kcat: < 1e-05 s⁻¹
glucosamine-6-phosphate [4]
  KM: 1260 ± 500 µM
glucosamine-6-phosphate [2]
  self-cleavage kobs at 40 uM GlcN6P: < 1e-05 s⁻¹
glucosamine-6-phosphate [7]
  self-cleavage kobs at 160 uM GlcN6P: < 1e-05 s⁻¹
glucosamine-6-phosphate [5]
  self-cleavage kobs at 640 uM GlcN6P: < 1e-05 s⁻¹

## AUAAAAGCGCCAGAACUACAGAAAUGUAGUUGACGAGAAGGAGGUUUAUCGAAUUUUUGGCGGAUGCGUCCAAA [G38A C58U C68G]
glucosamine-6-phosphate [1]
  kcat: 4.92e-05 ± 1.7e-05 s⁻¹
glucosamine-6-phosphate [5]
  self-cleavage kobs at 640 uM GlcN6P: 5.5e-05 ± 2.5e-05 s⁻¹
glucosamine-6-phosphate [3]
  self-cleavage kobs at 2500 uM GlcN6P: 6.16e-05 ± 2.5e-05 s⁻¹

## AUAAAAGCGCCAGAACUACAGAAAUGUAGUUGACGAAGAGGAGGUUUAUCGAAUUUUCUGCGGAUGCGUCCAAA [G37A G59U C68G]
glucosamine-6-phosphate [1]
  kcat: < 1e-05 s⁻¹

## AUAAAAGCGCCAGAACUACAGAAAUGUAGUUGACGAUGAGGAGGUUUAUCGAAUUUUCGGCGGAUGCCUUUAAA [G37U C70U C71U]
glucosamine-6-phosphate [1]
  kcat: 1.13e-05 ± 3.2e-06 s⁻¹

## AUAAAAGCGCCAGAACUACAGAAAUGUAGUUGACGAGAAGGAGGUUUAUCGAAUUUUCGGAGGAUUCCCUCAAA [G38A C61A G66U U69C C70U]
glucosamine-6-phosphate [1]
  kcat: 4.44e-05 ± 6.1e-06 s⁻¹

## AUAAAAGCGCCAGAACUACAGAAAUGUAGUUGACGAUGAGGAGGUUUAUCGAAUUUUCGGCGGAUGCUUCCAAA [G37U C68U]
glucosamine-6-phosphate [1]
  kcat: < 1e-05 s⁻¹

## AUAAAAGCGCCAGAACUACAGAAAUGUAGUUGACGACGAGGAGGUUUAUCGAAUUUUCGGCGGAUGACUCCAAA [G37C C67A]
glucosamine-6-phosphate [1]
  kcat: < 1e-05 s⁻¹
glucosamine-6-phosphate [4]
  KM: 2800 ± 950 µM
glucosamine-6-phosphate [7]
  self-cleavage kobs at 160 uM GlcN6P: < 1e-05 s⁻¹

## AUAAAAGCGCCAGAACUACAGAAAUGUAGUUGACGACGAGGAGGUUUAUCGAAUUUUCGGCGGAUGCCACCAAA [G37C U69A]
glucosamine-6-phosphate [1]
  kcat: 1.84e-05 ± 4.8e-06 s⁻¹

## AUAAAAGCGCCAGAACUACAGAAAUGUAGUUGACGAAGAGGAAGUUUAUCGAAUUUUCGGCGGAUGCCUCCAAA [G37A G43A]
glucosamine-6-phosphate [1]
  kcat: 2.89e-05 ± 3.1e-06 s⁻¹
glucosamine-6-phosphate [2]
  self-cleavage kobs at 40 uM GlcN6P: < 1e-05 s⁻¹
glucosamine-6-phosphate [7]
  self-cleavage kobs at 160 uM GlcN6P: < 1e-05 s⁻¹
glucosamine-6-phosphate [6]
  self-cleavage kobs at 10000 uM GlcN6P: 2.52e-05 ± 8.5e-06 s⁻¹

## AUAAAAGCGCCAGAACUACAGAAAUGUAGUUGACGAGAAGGAGGUUUAUCGUAUUUUCGGCGGAUGCCUCCAAA [G38A A52U]
glucosamine-6-phosphate [1]
  kcat: < 1e-05 s⁻¹
glucosamine-6-phosphate [6]
  self-cleavage kobs at 10000 uM GlcN6P: < 1e-05 s⁻¹

## AUAAAAGCGCCAGAACUACAGAAAUGUAGUUGACGAAGAGGAGGUUUAUCGAAUUUUCGGCAGAUGCCUCCAAA [G37A G62A]
glucosamine-6-phosphate [1]
  kcat: < 1e-05 s⁻¹
glucosamine-6-phosphate [2]
  self-cleavage kobs at 40 uM GlcN6P: < 1e-05 s⁻¹
glucosamine-6-phosphate [5]
  self-cleavage kobs at 640 uM GlcN6P: < 1e-05 s⁻¹
glucosamine-6-phosphate [6]
  self-cleavage kobs at 10000 uM GlcN6P: < 1e-05 s⁻¹

## AUAAAAGCGCCAGAACUACAGAAAUGUAGUUGACGACGAGGAGGUUUAUCGAUUUUUCGGCGGAUGCCUCCAAA [G37C A53U]
glucosamine-6-phosphate [1]
  kcat: 2.09e-05 ± 2.3e-06 s⁻¹
glucosamine-6-phosphate [2]
  self-cleavage kobs at 40 uM GlcN6P: < 1e-05 s⁻¹
glucosamine-6-phosphate [3]
  self-cleavage kobs at 2500 uM GlcN6P: 2.18e-05 ± 9.8e-06 s⁻¹
glucosamine-6-phosphate [6]
  self-cleavage kobs at 10000 uM GlcN6P: 1.92e-05 ± 8.5e-06 s⁻¹
